According to the supplement of paper PMC7877785:
± gives the uncertainty stated by the source.

Assay: self-splicing fitness, log relative to wild type (ln ratio); higher = more splicing; Tetrahymena group I intron in knt gene, E. coli kanamycin selection, DiMSum; sequences stand for … in CUCUCU…GGAGGGAAAAGUUAUCAGGCAUGCACCUGGUAGCUAGUCUUUAAACCAAUAGAUUGCAUCGGUUUAAAAGGCAAGACCGUCAAAUUGCGGGAAAGGGGUCAACAGCCGUUCAGUACCAAGUCUCAGGGGAAACUUUGAGAUGGCCUUGCAAAGGGUAUGGUAAUAAGCUGACGGACAUGGUCCUAACCACGCAGCCAAGUCCUAAGUCAACAGAUCUUCUGUUGAUAUGGAUGCAGUUCACAGACUAAAUGUCGGUCGGGGAAGAUGUAUUCUUCUCAUAAGAUAUAGUCGGACCUCUCCUUAAUGGGAGCUAGCGGAUGAAGUGAUGCAACACUGGAGCCGCUGGGAACUAAUUUGUAUGCGAAAGUAUAUUGAUUAGUUUUGGAGUACUCGUGGUCG
In short: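 Six replicate transformations of E. coli BL21(DE3) with a pET-22b(+) library were grown overnight at 37°C or 30°C. The library randomised all eight P1ex-region intron nucleotides, the intron lying in the knt kanamycin-resistance gene, and plates were LB agar with or without 25 μg/mL kanamycin plus 100 μg/mL carbenicillin, 50 μM IPTG and 0.2% rhamnose. Pooled colonies were amplicon-sequenced on an Illumina HiSeq 2500, and fitness is the DiMSum error-weighted combination of wild-type-normalised replicate fold changes, kanamycin versus none.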

Sequence	self-splicing fitness (ln) (30 °C)	self-splicing fitness (ln) (37 °C)
ACGAAGCAAUAUUACGCGUU	-4.06 ± 0.33	-2 ± 0.21
ACGAAGCAAUAUUACGGAAG	-2.54 ± 0.12	-2.4 ± 0.19
ACGAAGCAAUAUUACGGCAC	-2.03 ± 0.17	-0.996 ± 0.24
ACGAAGCAAUAUUACGGCCG	-0.664 ± 0.19	0.746 ± 0.29
ACGAAGCAAUAUUACGGGAG	-3.96 ± 0.22	-2.73 ± 0.17
ACGAAGCAAUAUUACGGUAC	-5.02 ± 0.38	-2.24 ± 0.17
ACGAAGCAAUAUUACGGUGG	-3.93 ± 0.15	-2.56 ± 0.23
ACGAAGCAAUAUUACGUAAC	-4.3 ± 0.42	-2.34 ± 0.49
ACGAAGCAAUAUUACGUAUA	-2.5 ± 0.12	-2.16 ± 0.12
ACGAAGCAAUAUUACGUCAU	-2.99 ± 0.12	-2.81 ± 0.14
ACGAAGCAAUAUUACGUUCU	-1.24 ± 0.07	-0.898 ± 0.081
ACGAAGCAAUAUUACGUUGA	-2.14 ± 0.17	-1.22 ± 0.12
ACGAAGCAAUAUUACGUUUG	-1.27 ± 0.071	-1.16 ± 0.11
ACGCAGCAAUAUUACGACAC	-1.83 ± 0.13	-0.767 ± 0.16
ACGCAGCAAUAUUACGAGCU	-2.76 ± 0.12	-1.18 ± 0.12
ACGCAGCAAUAUUACGAGGC	-2.95 ± 0.16	-2.79 ± 0.3
ACGCAGCAAUAUUACGAGUU	-3.67 ± 0.13	-1.6 ± 0.11
ACGCAGCAAUAUUACGAUAA	-2.84 ± 0.19	-1.95 ± 0.15
ACGCAGCAAUAUUACGAUAC	-2.56 ± 0.2	-1.87 ± 0.19
ACGCAGCAAUAUUACGCCCC	-0.51 ± 0.21	-0.189 ± 0.28
ACGCAGCAAUAUUACGCGAG	-2.56 ± 0.12	-0.987 ± 0.11
ACGCAGCAAUAUUACGCUUG	-3.56 ± 0.21	-2.55 ± 0.2
ACGCAGCAAUAUUACGGAAG	-3.57 ± 0.24	-1.75 ± 0.16
ACGCAGCAAUAUUACGGAGC	–	-2.47 ± 0.26
ACGCAGCAAUAUUACGGGAA	-2.99 ± 0.14	-2 ± 0.12

Sequence	self-splicing fitness (ln) (30 °C)	self-splicing fitness (ln) (37 °C)
ACGCAGCAAUAUUACGGGUU	-2.19 ± 0.069	-1.92 ± 0.092
ACGCAGCAAUAUUACGUAUC	-2.47 ± 0.2	-1.18 ± 0.17
ACGCAGCAAUAUUACGUCAC	-4.13 ± 0.39	-2.54 ± 0.19
ACGCAGCAAUAUUACGUCAU	-3.44 ± 0.12	-1.52 ± 0.11
ACGCAGCAAUAUUACGUCCC	–	-0.268 ± 0.48
ACGCAGCAAUAUUACGUUCU	-1.1 ± 0.082	-0.958 ± 0.09
ACGCAGCAAUAUUACGUUUU	-3.43 ± 0.12	-2.11 ± 0.11
ACGGAGCAAUAUUACGAAAC	–	-1.46 ± 0.31
ACGGAGCAAUAUUACGAACG	-2.54 ± 0.16	-0.693 ± 0.16
ACGGAGCAAUAUUACGAAUU	-3.52 ± 0.26	-2.5 ± 0.27
ACGGAGCAAUAUUACGACUU	-2.69 ± 0.1	-1.37 ± 0.11
ACGGAGCAAUAUUACGAUCC	–	-1.94 ± 0.47
ACGGAGCAAUAUUACGCAAC	–	-2.4 ± 0.35
ACGGAGCAAUAUUACGCAGG	-1.72 ± 0.15	-2.41 ± 0.35
ACGGAGCAAUAUUACGCAGU	-3.19 ± 0.34	-2.35 ± 0.49
ACGGAGCAAUAUUACGCAUG	-2.65 ± 0.2	-2.28 ± 0.23
ACGGAGCAAUAUUACGCCGA	-1.94 ± 0.25	-1.49 ± 0.19
ACGGAGCAAUAUUACGCGCA	-1.39 ± 0.23	-1.64 ± 0.17
ACGGAGCAAUAUUACGCGUG	-2.24 ± 0.12	-0.943 ± 0.11
ACGGAGCAAUAUUACGCUCG	-1.67 ± 0.14	-1.01 ± 0.16
ACGGAGCAAUAUUACGGAAG	-4.44 ± 0.46	-1.89 ± 0.46
ACGGAGCAAUAUUACGGAGA	–	-2.01 ± 0.46
ACGGAGCAAUAUUACGGCGU	-2.38 ± 0.2	-1.48 ± 0.19
ACGGAGCAAUAUUACGGGCA	-2.06 ± 0.42	–
ACGGAGCAAUAUUACGGGCC	-2.53 ± 0.48	-1.06 ± 0.4

Sequence	self-splicing fitness (ln) (30 °C)	self-splicing fitness (ln) (37 °C)
ACGGAGCAAUAUUACGGGUC	–	-2.58 ± 0.38
ACGGAGCAAUAUUACGUAUU	-3.44 ± 0.48	–
ACGGAGCAAUAUUACGUCCC	-1.47 ± 0.25	-0.893 ± 0.2
ACGGAGCAAUAUUACGUGUU	-3.23 ± 0.13	-2.56 ± 0.16
ACGUAGCAAUAUUACGAGGC	–	-2.11 ± 0.39
ACGUAGCAAUAUUACGAUAU	-1.39 ± 0.1	-1.04 ± 0.15
ACGUAGCAAUAUUACGCGAG	-3.43 ± 0.19	-0.232 ± 0.11
ACGUAGCAAUAUUACGCGGU	-3.63 ± 0.16	-2.33 ± 0.17
ACGUAGCAAUAUUACGCGUU	–	-2.49 ± 0.24
ACGUAGCAAUAUUACGCUCU	-0.479 ± 0.12	-0.414 ± 0.15
ACGUAGCAAUAUUACGCUGU	-2.65 ± 0.17	-2.34 ± 0.21
ACGUAGCAAUAUUACGCUUG	-1.26 ± 0.083	-1.28 ± 0.093
ACGUAGCAAUAUUACGGAGA	-3.36 ± 0.44	-2.08 ± 0.24
ACGUAGCAAUAUUACGGCUA	-1.9 ± 0.12	-2.26 ± 0.18
ACGUAGCAAUAUUACGGGGC	-4.11 ± 0.14	-2.73 ± 0.12
ACGUAGCAAUAUUACGGGUG	-2.67 ± 0.086	-1.18 ± 0.085
ACGUAGCAAUAUUACGGUCG	-1.23 ± 0.093	-0.666 ± 0.12
ACGUAGCAAUAUUACGGUCU	-0.728 ± 0.078	-0.139 ± 0.097
ACGUAGCAAUAUUACGUCCG	-1.63 ± 0.12	-0.705 ± 0.11
ACGUAGCAAUAUUACGUCGC	-3.64 ± 0.35	-1.91 ± 0.27
ACGUAGCAAUAUUACGUUUA	-2.63 ± 0.15	-2.73 ± 0.17
ACUAAGCAAUAUUACGAACA	-1.86 ± 0.18	-0.417 ± 0.19
ACUAAGCAAUAUUACGAAUC	-3.41 ± 0.21	-1.05 ± 0.17
ACUAAGCAAUAUUACGACAC	-0.549 ± 0.1	-0.813 ± 0.13
ACUAAGCAAUAUUACGAUCU	-0.809 ± 0.092	0.314 ± 0.1

Sequence	self-splicing fitness (ln) (30 °C)	self-splicing fitness (ln) (37 °C)
ACUAAGCAAUAUUACGAUGC	-1.53 ± 0.091	-0.792 ± 0.11
ACUAAGCAAUAUUACGCAGU	-4.72 ± 0.28	-3.25 ± 0.46
ACUAAGCAAUAUUACGCAUC	-3.13 ± 0.28	-1.54 ± 0.2
ACUAAGCAAUAUUACGCCCA	-0.779 ± 0.11	-0.482 ± 0.13
ACUAAGCAAUAUUACGCCGA	-1.86 ± 0.18	-0.197 ± 0.16
ACUAAGCAAUAUUACGCCUC	-2.41 ± 0.21	-1.64 ± 0.34
ACUAAGCAAUAUUACGCGAG	-1.77 ± 0.082	-0.355 ± 0.089
ACUAAGCAAUAUUACGCGAU	-2.98 ± 0.15	-1.82 ± 0.2
ACUAAGCAAUAUUACGCGUC	-4.43 ± 0.41	-2.1 ± 0.22
ACUAAGCAAUAUUACGGCGA	-0.131 ± 0.1	-0.411 ± 0.13
ACUAAGCAAUAUUACGGCGU	-0.894 ± 0.078	-0.0271 ± 0.1
ACUAAGCAAUAUUACGGGGU	-4.13 ± 0.28	-2.2 ± 0.19
ACUAAGCAAUAUUACGGGUA	-1.77 ± 0.11	-0.856 ± 0.11
ACUAAGCAAUAUUACGUCAG	-2.63 ± 0.16	-1.57 ± 0.23
ACUAAGCAAUAUUACGUGCG	-0.891 ± 0.086	-0.294 ± 0.098
ACUAAGCAAUAUUACGUGGA	-2.99 ± 0.14	-1.49 ± 0.11
ACUAAGCAAUAUUACGUUGU	-3.58 ± 0.16	-2.78 ± 0.18
ACUCAGCAAUAUUACGAAAA	-1.32 ± 0.11	-1.36 ± 0.16
ACUCAGCAAUAUUACGAACC	-0.758 ± 0.097	-0.326 ± 0.1
ACUCAGCAAUAUUACGAAUG	-1.17 ± 0.11	-0.992 ± 0.15
ACUCAGCAAUAUUACGACGC	-0.134 ± 0.074	0.447 ± 0.088
ACUCAGCAAUAUUACGACUA	-0.633 ± 0.12	-0.128 ± 0.12
ACUCAGCAAUAUUACGAGCC	-1.32 ± 0.079	-0.908 ± 0.11
